The source of these data is patent US20140031294A1 (NOVOZYMES BIOPHARMA UK, published 2014).

In the assay the target is transferrin receptor on human erythroleukemic K562 cells (human, UniProt P02786 1-760). Briefly: cell-based or functional assay.
transferrin receptor on human erythroleukemic K562 cells, sequence (P02786 whole entry): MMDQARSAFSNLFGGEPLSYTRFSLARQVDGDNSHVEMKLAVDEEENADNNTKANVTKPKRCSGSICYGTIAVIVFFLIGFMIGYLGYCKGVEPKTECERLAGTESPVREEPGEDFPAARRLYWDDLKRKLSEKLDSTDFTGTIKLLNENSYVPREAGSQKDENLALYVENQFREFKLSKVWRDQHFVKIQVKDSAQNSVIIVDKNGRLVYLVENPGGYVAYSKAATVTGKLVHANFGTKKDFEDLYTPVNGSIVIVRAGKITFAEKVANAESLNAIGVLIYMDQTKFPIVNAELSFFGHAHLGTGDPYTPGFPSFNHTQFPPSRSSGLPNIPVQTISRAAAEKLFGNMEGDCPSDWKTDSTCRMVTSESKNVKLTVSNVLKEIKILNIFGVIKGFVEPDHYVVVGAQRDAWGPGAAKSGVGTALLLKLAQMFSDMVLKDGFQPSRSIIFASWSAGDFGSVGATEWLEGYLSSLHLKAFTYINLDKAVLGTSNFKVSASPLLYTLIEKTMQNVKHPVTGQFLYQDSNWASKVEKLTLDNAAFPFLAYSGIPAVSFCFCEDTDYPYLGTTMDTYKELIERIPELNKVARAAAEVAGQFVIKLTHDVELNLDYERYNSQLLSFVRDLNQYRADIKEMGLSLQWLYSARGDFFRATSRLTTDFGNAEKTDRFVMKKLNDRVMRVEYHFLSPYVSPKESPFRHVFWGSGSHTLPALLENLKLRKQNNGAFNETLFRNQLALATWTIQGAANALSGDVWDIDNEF

B1: recombinant transferrin (N413Q, N611Q) (ligand)
chain: VPDKTVRWCAVSEHEATKCQSFRDHMKSVIPSDGPSVACVKKASYLDCIRAIAANEADAVTLDAGLVYDAYLAPNNLKPVVAEFYGSKEDPQTFYYAVAVVKKDSGFQMNQLRGKKSCHTGLGRSAGWNIPIGLLYCDLPEPRKPLEKAVANFFSGSCAPCADGTDFPQLCQLCPGCGCSTLNQYFGYSGAFKCLKDGAGDVAFVKHSTIFENLANKADRDQYELLCLDNTRKPVDEYKDCHLAQVPSHTVVARSMGGKEDLIWELLNQAQEHFGKDKSKEFQLFSSPHGKDLLFKDSAHGFLKVPPRMDAKMYLGYEYVTAIRNLREGTCPEAPTDECKPVKWCALSHHERLKCDEWSVNSVGKIECVSAETTEDCIAKIMNGEADAMSLDGGFVYIAGKCGLVPVLAENYQKSDNCEDTPEAGYFAVAVVKKSASDLTWDNLKGKKSCHTAVGRTAGWNIPMGLLYNKINHCRFDEFFSEGCAPGSKKDSSLCKLCMGSGLNLCEPNNKEGYYGYTGAFRCLVEKGDVAFVKHQTVPQNTGGKNPDPWAKNLNEKDYELLCLDGTRKPVEEYANCHLARAPNHAVVTRKDKEACVHKILRQQQHLFGSQVTDCSGNFCLFRSETKDLLFRDDTVCLAKLHDRNTYEKYLGEEYVKAVGNLRKCSTSSLLEACTFRRP
Regarding B1, the “Apparent Affinity (competition against 55Fe uptake from labelled plasma transferrin by K562 cells)” value stood at 123 nM.
